Target: McDRM2 (Malus cv. spp. (crabapple), UniProt UPI0010AA5BBA 1-600)
Test: EMSA; 10x binding buffer, MgCl2, NP-40; 2 uL 10x binding buffer, 1 uL 50% glycerol, 1 uL 100 mM MgCl2, 1 uL 1% NP-40, 2 ug protein, 2 uL 0.1 uM biotin oligo; 25 C, 20 min; 12% native PAGE; pH and salt not given
Conditions: protein: recombinant; tags: MBP (pMAL-C2X); label: 3' biotin

Sequence of McDRM2 (chain, as listed by the source): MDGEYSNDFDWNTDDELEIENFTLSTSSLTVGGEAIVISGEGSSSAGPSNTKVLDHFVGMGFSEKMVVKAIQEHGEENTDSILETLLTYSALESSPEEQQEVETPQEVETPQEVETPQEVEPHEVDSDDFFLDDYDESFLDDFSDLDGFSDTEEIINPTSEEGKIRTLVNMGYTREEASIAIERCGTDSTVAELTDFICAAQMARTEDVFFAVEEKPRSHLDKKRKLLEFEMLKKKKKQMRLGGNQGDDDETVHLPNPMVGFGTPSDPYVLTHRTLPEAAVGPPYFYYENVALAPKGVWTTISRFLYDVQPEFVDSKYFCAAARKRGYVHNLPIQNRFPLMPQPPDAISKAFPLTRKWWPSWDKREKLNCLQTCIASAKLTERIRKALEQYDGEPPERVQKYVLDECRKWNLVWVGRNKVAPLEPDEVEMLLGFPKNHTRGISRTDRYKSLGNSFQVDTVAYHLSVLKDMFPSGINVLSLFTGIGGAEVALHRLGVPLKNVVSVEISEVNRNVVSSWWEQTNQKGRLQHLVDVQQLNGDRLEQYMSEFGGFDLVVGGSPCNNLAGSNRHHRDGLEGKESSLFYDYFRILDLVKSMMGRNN

B1: McCOP1 promoter SINE-site probe (dsDNA)
DNA 1: TTCAACGTATTAACTTTATCGGTTCGGTGGACAATTCC
DNA 2: GGAATTGTCCACCGAACCGATAAAGTTAATACGTTGAA
Question: Does B1 bind?
Answer: no binding

From paper PMC8618851, “The RNA Directed DNA Methylation (RdDM) Pathway Regulates Anthocyanin Biosynthesis in Crabapple (Malus cv. spp.) Leaves by Methylating the McCOP1 Promoter”
